Experimental data from the nanobody polyreactivity screen of Harvey et al. (2022).

Experiment: yeast display, Sf9 membrane polyspecificity reagent, FACS + sequencing; frameworks hold sequencing errors
Outline: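 In a synthetic yeast display library (Saccharomyces cerevisiae BJ5465), nanobody expression was induced with galactose for 36–48 hours. FACS gates were set low and high (top ~1%) using anti-HA fluorescence for expression and streptavidin fluorescence for binding of the Sf9 membrane reagent. Each polyreactivity label is drawn from the gate of origin.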

Sequence | polyreactivity (PSR sort gate)
QVQLVESGGGLVQAGGSLRLSCAASGLTFSRNAMGWYRRAAGKERELVAAITKSGARTYYADSVKGRFTISRDNAKNTVYLQMNSLKPEDTAVYYCAADALNTYYYWGQGTQVTVSS | high polyreactivity
QVQLVESGGGLFQAGGSLRLSCAASGSTFYNYAMGWYRQAPGIERELVAAISSGGSTNYADSVKGRFTISRDNAKYTVFLQMNSLKPEDSAVYYCARRHRVYASRNGHDYWGQGTQVTVSS | low polyreactivity
QVQLVESGGGLVQAGGSLRLSCAASGRTFTRYAMGWSRQAPGKERELVAAITSTGSTYYADSVKGRFTISRDNAKNTVYLQMNSLKPEDTAVYYCNKVGIRYYYGYDYWGQGTQVTVSS | high polyreactivity
QVQLVESGGGLVQAGGRLRLSCSASGSTFYPNAMGWYRQAPGKERELGAAISWSGGSTYYADSVKGRFTISRDNAKKTVDLQMNSLKPEDTAVYYCAAYYYGVRKYDYWGQGTQVTVSS | high polyreactivity
QVHLVESGVGLVQAGGSLRLSCAASGQIFPYYAMGWYRPAPGKETELVAAITSGGGTYYADSVKGRFTISRDNAKNTVYLQMNSLKPEDTAVYYCAVGSYGHPKHRRNLDYWGQGTQVTVSS | low polyreactivity
QVQLVESGGGLVQAGGSLRLSCAASGFIFHWNAMGWYRQAPGKERELVAAITWRGTNTYYADSVKGRFTISRDNAKNTVYLQMNSLKPEDTAVYYCAGTRNPWPTSFDYWGQGTQVTVSS | low polyreactivity
QVQLVESGGALDQAGGSLRLSCAASGRIFKWYAKGWYRQAPGKERELVATISWSGGSTYYADSVKGRFTISRDNAKKTVYLQMNSLKPEDTAVYYCNADTWLALPGFDYWGQGTQVTVSS | high polyreactivity
QVQLVESGGGLVQAGGSLRLSCAASGFTFRYYVMGWSRQAPGKESELVAAICWSGGSTYYADSVKVRFTISRDNAKNTVYLQMNRLKPEDTAFYYCNARRYFRTSQQPLYDYWGQGTQVTVSS | high polyreactivity
QVQLVESGGGLVQAGGSLRLICAASGSTFRNYAMGWYRQAPGKDRELVAAISRGDGTYYADSVKWRFTISRDNAKNTVYLLMNSLKPEYSAVYYCAAAYRGRQNPMGFWGQGTQVTVSS | high polyreactivity
QVQLVESGGGLVQAGGSLRLSCAASGIIYAYYAMGWYRQAPGKERELVAAISRSGGITYYADSVKGRFTISRDNAKNTVYLQMNSLKPEDTAVYYCARYSSRPYDYWGQGTQVTVSS | high polyreactivity
QVQLVESGGGLVQAGGSHRLSCAASGSTSGINAMGWYRQAPGKERELVAAIRLSGGRTYYADSVKGRFTISRDNAKNTVYLQMNSLKPEDTAVYYCAARYPSRVGYYYLGQGTQVTVSS | high polyreactivity
QVQLVESGGGLVQAGGSLRLSCAASGIIFRSNAMGWYRQAPGKERELVAAISWSGSSTYYADSVKGRFTISRDNAKKTVYLQMNSLKPEDTAVYYCAAYDFYGIYWGQGTQVTVSS | low polyreactivity
QDQLVESGGGLVQAGGSLRLSCAASGNIFCYYVMGWYRQAPGKERELVAAITWSGGTTNYADSVKGRFTISRDNAKNTVYLQMNSLKPDDTAVYDCATDRYAYKLYDYWGQGTQVTVSS | low polyreactivity
QVQLVESGGGLVQAGGSLRLSCAASGRILRTYAMGWYIQAPGKERELVAAISRSGGSTYYADSVKGRFTLSRDNAKNTVAVQMTSLKPEDTAVYYCHKAYGGRGSKDEYWGQGTQVTVSS | high polyreactivity
QVQLVESGGGLVQAGGSLRLSCAASGFIFYDYAMGWYRQAPGKERELVASISWSTGSTYYADSVKGRFTISRDNAKNTVYLQMNSLKPEDTADYYCAADGYPLQLYNYWGQGTQVTVSS | low polyreactivity
QVQLVESGGGLVQAGGSLRISCAASGRIFRQNTMGWYRQAPGKERELVAAISRSGGSTYYADSVKGRFTISRENAKNTVYLQMNSLKPEDTAVYYCNKVTYIVAIWGSDIYVPSEFGYWGQGTQVTVSS | high polyreactivity
QVQLVESGGGLVQEGGSLRLSCAASGGTFYAYTMGWYRPAPGTERELVAAISRSGGSTYYADSVKGRITISRDTAKNSVYLQINSLKPEDTAVYYCAAVESGADYYYWGQGTQVTVSS | high polyreactivity
QVHLVESGGGLVQAGGRLRLSCAASALTYAYYAMGRYREAPRKERELVAAITTGGTTNYADSVKGRFTISRDNAKNTVYLQMNSLKTEDTAVYYCARLYRSGYEYWGQGTQVTVSS | low polyreactivity
QVPLVESGGGLVQAGGSLRLSCAASGSIFLLYDMGWYRQAPGKERELVAAITWSGGSTYYADSVKGRFTISRDNAMNSVYLQMNSLKPEDTAVYYCAADEPYPTAYEYWGQGTQVTVSS | low polyreactivity
QVQLVESGGGLVQAGGSLRLSCAASGRIFFVYAMGWYRQAPGKERELVAGIRSSGGSTYYADSVKGRFTISRDNAKNTVYLQMNSLKPEDTAVYYCAARRVGYPSPYSTYGMYYWGQGTQVTVSS | high polyreactivity
QVQLVESGGGLVQAGGSLRLSCAASGSTFFSYAMGWYRQAPGKERELVAVITGSDGRTFYADSVKGRFTISRDNAKNTVYLQMNSLKPEDTAVYYCAADAVFRATRYDRSTSEDDYWGQGTQVTVSS | low polyreactivity
QVQLVESGGGLVQAGGSLRLSCAASGFTFGPYAMGWYRQAPGKERELVAAIRGSGSSTYYADSVKGRFTISRDNAKNTVYLQMNSLKPEDTAVYYCAAKRRYGTDGYWGQGTQVTVSS | high polyreactivity

Sequence | polyreactivity (PSR sort gate)
QVQVVESGGGLVQAGGSLRVICAASGSTFYRNAMGWYRQAPGKEWELVAAITRSASSTYYADSVKGRFTISRDNAKNNVDLQLNSLKPEDTAVYYCAAKRRVSHLDYWGQGTQVNVSS | high polyreactivity
QVQLVESGGGLVQAGGSLRLSCAASGRTFSGNTMGWYRQAPGKEREFVATISQSGTITSYADSVKGRFTISRDNAKNTVYLQMNSLKPEDTAVYYCAARAVYYSSRGWITRFDYWGQGTQVTVSS | high polyreactivity
QVQLVESGGGLVQAGGSLRLSCAASGSTFYYYAMGWYRQAPGKESELVAAISPSGDSTYNADSVKGRFTISRENSKNTVYLQMNSLKPEDTAVYYFAAQYYFYPQEFDDWGQGTQVTVSS | low polyreactivity
QVQLVESGAGLVQAGGSLRLSCAASGRTFHGYAMGWYRQAPRKERELLARINWSDGRTYYADSVKGRFTISRDNAKNTVFLQMNSLKPEDTAVYYCAADKTVSYAPAWYYYWGQGTQVTVSS | low polyreactivity
QVQLLESGGGLVQAGGSLRLSCAASGSTFPRNAMGWYRQAPGKERELVATITSSGGGTYYADSVKGRFTISRDNAKNTVYLQMNSLKPEDTAVDYCNADGPAGDAFDYWGQGTQVTVSS | low polyreactivity
QVQLVESGGGLVQAGGSLRISCAASGITFYRYTMGWYRQAPGKERELVAAISRSGSSTYYADSVKGRFTISRDNAKNTVDLQMNSLIPEDTAVYYCASRFGDMGYWGQGTQVTVSA | high polyreactivity
QVQLVESGGGLVQAGGSLRLSCAASGSIFYIYAMGWYRQAPGKERELVAAITSSVGRTYYADSVKGRFTISRDNAKNTFYLQMNSLKAEDTAVYYCAADYYYSQVAYVYWGHGTQVTVSS | high polyreactivity
QVQLVESGGGLVQAGGSLRLSCAASGIIFTDYAMGWYRQAPGTERELVAAISSGGGSTYYADSVKGRFTISRDNAKYSVYLQMNSLKPDDTAVYYGAAQSSGSYGFDHWGQGTQVTVSS | high polyreactivity
QVQLVESGGGLVQAGGSLRLSCAASGYIFGAYAMGWYRQAPGKERELVAGITASGDSTYYADSVKGRFTISRDNAKNTVYLQMNSLKPEDTAVYYCNAQPDIGLYDRQWKEPYEYWGQGTQVTVSS | low polyreactivity
QVQLVESGGCLVQAGGSLRLSCCASARTFWYYTMGWYRQAPGKERELVASISRVTSTYYADSVKGRLTSSRDNAKNTVYLQMNSLKPEDTAVYYCAGLQIRRSYWRTFYWGQGTQVTVSS | low polyreactivity
QVQLVESGGGLVQAGGSLRLSCAASGRIFIKYAMGWYRQAPGKERELVAAISQSGGSTYYADSVKGRFTISRDNAKNTVYLQMNSLKPEDTAVYYCAVRLYYSIRYYYWGQGTQVTVSS | high polyreactivity
QVQLVESGGGLVQAGGSLRLSCAASGITFYWYTMGWYRQAPGKERELVADIDGDGGSTYYAVSVKGRFTISRDNAKNTVYLLMNSVKPEDTGVYFCAAQVWPWGYDYWGQGTQVTVSS | high polyreactivity
QVQLVESGGGLVQAGGSLRLSCAASGNTFRFYTMGWYRQAPGKERELVAAINSSGRTNYADSVKGRFTISRDNAKNTVYLQMNSLKPEDTAVYYCAATVWVYRRSRDYWGQGTQVTVSS | low polyreactivity
QVQLVESGGGLVQAGGSLRLSCAASGITFSYNAMGWDRQAPGKERELVAAISSNSDSTYYADSVKGRFTISRDNAKNTVYLQMNSLKPEDTAVYYCAADTPDAPDYSGFYYWGQGTQVTVSS | low polyreactivity
QVQLVESGVGLVQPGGILRLSCAASGIIFTQYAMGWNIQAPGKESELVAAMSGSGGSTYYADSVKGRFTISRDNAKNTVYLQMNSLKPEDTAVFYCAAGGVRGPGVESRMFYLGQGTQVTVSS | high polyreactivity
QVQLVESGGGLVQAGGSLRLSCAASGFIFRYYAMGWYRQAPGKEREMVAAISRSGGSTYYADSVKGRFTISRDNANNTVYLQMKSLKPEDTAVYYCAALQSRSWYQFNYWGQGTQVTVSS | high polyreactivity
QVQLVESGGGLVQAGGSLRLSCAASGTTFAKNAMGWYRQAPGKERELVAAISWSGGSTYYADSVKGRFTISRDNAKNSVYLQMNSLKPVDTAVYYCAADSPRYGGYGYWGQGTQVTVSS | low polyreactivity
QVQLVESGGGLVQAGGSLRLSCAASGNTFPVNAMGWYRQAPGKERDLVAAISRTGASTYYADSVKGRITISRDNAKNTVYLQMNSLKPEDTAVYYCAKYLKTPHNRRRVEALGYWGQGTQVTVSS | high polyreactivity
QVQLVESGGGLVQAGGSLRLSCAASGFIFNLYAMGWYRQAPGKERELVAVITGSGVRTYYADSVKGRFTISRDNAKNTVYLQMNSLKPEDTAVYYCAARTYGGYEYWGQGTQVTVSS | high polyreactivity
QVQLEESGGGLVQAGGSLRLSCAASGSTFWFNAMGWYRQAPGKERELVAVITWSGDGTYYADSVKGRFTISRDNANYTVYLQRNSLKPEDTAVYYCAKGFERYPWYDYWGQGTQVTVSS | low polyreactivity
QVQLVESGGGLVQAGGSLRLSCAASGSIFSYYAMGWYRQAPGKERELVAVISSSGGRTYYADSVKGRFTISRDNAKNTVYLQMNSLKPEDTAVYYCARERWWGGSDYWGQGTQVTVSS | high polyreactivity
